Measurements as given in patent US20180119100A1.

Assays:
Experiment in all cases: cell-based or functional assay
[1] = biological target: Jagged-1 expressed on mouse GM-BMDCs (mouse) (UniProt Q9QXX0)
[2] = biological target: OX40L expressed on mouse GM-BMDCs (mouse) (UniProt P43488)
[3] = biological target: Notch 3 expressed on mouse T-cells (Tregs) (mouse) (UniProt Q61982)
UniProt Q61982, sequence (Q61982 40-2318): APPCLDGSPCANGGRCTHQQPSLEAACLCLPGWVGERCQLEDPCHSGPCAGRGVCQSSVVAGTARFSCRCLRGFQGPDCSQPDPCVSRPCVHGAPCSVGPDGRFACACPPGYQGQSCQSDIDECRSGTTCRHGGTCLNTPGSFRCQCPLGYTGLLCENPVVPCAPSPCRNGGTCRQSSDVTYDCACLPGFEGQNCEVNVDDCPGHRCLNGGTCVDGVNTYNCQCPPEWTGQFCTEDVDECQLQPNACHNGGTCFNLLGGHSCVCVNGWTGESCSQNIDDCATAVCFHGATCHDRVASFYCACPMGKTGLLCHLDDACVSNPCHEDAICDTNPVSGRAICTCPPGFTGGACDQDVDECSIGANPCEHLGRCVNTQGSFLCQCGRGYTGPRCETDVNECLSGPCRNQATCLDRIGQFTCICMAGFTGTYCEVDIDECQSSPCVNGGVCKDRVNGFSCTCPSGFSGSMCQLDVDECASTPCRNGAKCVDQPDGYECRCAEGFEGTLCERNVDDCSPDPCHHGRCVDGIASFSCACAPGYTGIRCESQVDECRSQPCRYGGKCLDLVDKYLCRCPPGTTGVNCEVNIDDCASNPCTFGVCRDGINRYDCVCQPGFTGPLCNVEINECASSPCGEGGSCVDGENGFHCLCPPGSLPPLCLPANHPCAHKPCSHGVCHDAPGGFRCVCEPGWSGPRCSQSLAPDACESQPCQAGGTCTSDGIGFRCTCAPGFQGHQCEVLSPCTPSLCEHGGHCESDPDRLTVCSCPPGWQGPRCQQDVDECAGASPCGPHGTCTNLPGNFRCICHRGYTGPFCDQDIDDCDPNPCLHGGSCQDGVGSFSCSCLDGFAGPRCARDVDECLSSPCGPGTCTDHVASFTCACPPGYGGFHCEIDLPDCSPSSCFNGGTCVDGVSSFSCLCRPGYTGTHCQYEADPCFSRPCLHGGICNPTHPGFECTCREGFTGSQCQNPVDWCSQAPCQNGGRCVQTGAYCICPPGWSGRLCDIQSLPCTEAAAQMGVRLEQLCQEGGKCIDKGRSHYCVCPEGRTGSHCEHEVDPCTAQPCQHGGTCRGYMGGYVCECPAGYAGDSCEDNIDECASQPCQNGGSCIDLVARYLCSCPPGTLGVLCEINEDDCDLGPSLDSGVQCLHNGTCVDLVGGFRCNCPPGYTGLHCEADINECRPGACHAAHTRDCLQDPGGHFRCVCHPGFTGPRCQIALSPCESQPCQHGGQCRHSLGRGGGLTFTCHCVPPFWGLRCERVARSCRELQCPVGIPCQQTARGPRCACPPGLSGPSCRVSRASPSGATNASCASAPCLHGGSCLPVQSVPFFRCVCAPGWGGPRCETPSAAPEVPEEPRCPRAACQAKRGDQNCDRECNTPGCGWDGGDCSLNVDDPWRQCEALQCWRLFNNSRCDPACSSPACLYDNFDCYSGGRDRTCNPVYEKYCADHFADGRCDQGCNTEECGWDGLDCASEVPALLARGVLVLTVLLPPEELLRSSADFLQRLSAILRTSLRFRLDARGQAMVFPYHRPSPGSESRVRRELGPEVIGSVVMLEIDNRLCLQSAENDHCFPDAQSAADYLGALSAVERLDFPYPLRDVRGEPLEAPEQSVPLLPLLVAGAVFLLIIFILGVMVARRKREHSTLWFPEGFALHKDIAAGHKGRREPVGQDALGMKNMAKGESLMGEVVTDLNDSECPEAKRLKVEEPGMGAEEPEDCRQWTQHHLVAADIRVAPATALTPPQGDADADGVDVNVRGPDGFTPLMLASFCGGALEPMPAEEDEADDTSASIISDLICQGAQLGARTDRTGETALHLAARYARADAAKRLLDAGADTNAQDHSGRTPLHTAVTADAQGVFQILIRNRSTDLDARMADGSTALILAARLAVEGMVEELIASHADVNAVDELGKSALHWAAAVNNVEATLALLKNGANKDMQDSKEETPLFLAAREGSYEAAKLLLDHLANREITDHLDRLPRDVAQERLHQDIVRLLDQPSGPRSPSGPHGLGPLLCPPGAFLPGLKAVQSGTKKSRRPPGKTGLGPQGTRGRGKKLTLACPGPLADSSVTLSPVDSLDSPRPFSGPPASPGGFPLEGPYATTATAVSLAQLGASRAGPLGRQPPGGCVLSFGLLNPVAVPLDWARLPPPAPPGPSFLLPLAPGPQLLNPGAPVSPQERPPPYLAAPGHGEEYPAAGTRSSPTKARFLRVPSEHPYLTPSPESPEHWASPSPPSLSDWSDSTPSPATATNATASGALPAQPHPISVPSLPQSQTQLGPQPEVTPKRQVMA

UniProt P43488, sequence (P43488 whole entry): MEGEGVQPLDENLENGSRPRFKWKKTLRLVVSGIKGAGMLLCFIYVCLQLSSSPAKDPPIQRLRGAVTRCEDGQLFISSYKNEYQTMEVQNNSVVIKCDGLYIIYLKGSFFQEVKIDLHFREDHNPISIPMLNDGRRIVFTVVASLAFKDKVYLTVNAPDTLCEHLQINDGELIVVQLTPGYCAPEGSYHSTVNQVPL
UniProt Q9QXX0, sequence (Q9QXX0 34-1218): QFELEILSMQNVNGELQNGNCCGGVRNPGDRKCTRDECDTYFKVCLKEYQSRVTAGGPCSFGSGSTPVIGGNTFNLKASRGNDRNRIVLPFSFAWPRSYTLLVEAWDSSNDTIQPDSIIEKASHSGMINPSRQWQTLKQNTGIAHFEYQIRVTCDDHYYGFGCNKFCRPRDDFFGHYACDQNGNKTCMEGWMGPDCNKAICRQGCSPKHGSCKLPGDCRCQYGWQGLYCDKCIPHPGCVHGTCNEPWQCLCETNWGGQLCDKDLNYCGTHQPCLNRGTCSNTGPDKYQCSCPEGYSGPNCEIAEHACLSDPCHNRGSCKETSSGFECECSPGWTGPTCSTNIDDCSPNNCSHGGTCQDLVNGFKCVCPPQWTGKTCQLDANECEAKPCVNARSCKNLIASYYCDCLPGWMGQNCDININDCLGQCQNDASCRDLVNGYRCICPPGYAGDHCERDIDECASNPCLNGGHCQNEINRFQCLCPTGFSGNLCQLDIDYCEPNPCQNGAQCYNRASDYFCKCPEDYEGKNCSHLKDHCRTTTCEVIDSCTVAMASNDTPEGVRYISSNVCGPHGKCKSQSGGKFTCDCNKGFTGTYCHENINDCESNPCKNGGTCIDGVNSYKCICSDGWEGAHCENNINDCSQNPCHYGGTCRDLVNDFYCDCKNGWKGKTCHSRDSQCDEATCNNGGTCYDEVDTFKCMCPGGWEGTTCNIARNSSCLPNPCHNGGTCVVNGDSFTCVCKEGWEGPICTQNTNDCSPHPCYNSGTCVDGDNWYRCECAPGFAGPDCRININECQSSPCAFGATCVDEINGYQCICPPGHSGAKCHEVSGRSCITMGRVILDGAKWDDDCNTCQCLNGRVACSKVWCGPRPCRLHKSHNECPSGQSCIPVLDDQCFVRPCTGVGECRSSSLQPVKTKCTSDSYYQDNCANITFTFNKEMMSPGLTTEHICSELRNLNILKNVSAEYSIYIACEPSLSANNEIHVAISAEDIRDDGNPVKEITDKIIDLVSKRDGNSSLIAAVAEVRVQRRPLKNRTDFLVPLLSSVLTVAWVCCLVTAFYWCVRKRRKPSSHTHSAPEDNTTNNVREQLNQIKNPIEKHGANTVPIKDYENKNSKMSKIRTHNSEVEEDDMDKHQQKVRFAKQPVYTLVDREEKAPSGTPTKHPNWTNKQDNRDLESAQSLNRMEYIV

“Blocking antibody to Jagged-1 (AF599, R&D systems)” was tested, and the Treg proliferation (%) in GM-BMDC/CD4+ T-cell co-culture with anti-Jagged-1-Hi (13.0% without antibody) [1] was 5.3%.
“Blocking antibody to OX40L (AF1236, R&D systems)” showed a Treg proliferation (%) in GM-BMDC/CD4+ T-cell co-culture with anti-OX40L-Hi (13.0% without antibody) [2] of 3.7%.
“Jagged-1 expressed on mouse GM-BMDCs (from UniProt Q9QXX0 34-1218) (ligand)” gave a Proliferating Foxp3+ T cells positive for Notch 3 NICD in GM-BMDC/T-cell co-cultures (FACS) [3] of 97%.
